In PMC7467691, “Meiotic chromosome synapsis depends on multivalent SYCE1-SIX6OS1 interactions that are disrupted in cases of human infertility” (Science Advances, 2020):
Each block holds one binder with its values, some of them ahead of it.

Key:
[1] = biological target: T1, SIX6OS1N (human SIX6OS1 amino acids 1 to 67) (human, UniProt Q8N1H7 1-67); test: SEC-MALS; 5 to 20 mg/ml in 20 mM tris (pH 8.0), 150 mM KCl, 2 mM DTT; Superdex 200 Increase 10/300 GL at 0.5 ml/min; settings: both partners purified
T1 construct: Protein SIX6OS1, human, amino acids 1 to 67; also called SIX6OS1 1–67; source: E. coli BL21(DE3), co-expressed with SYCE1 constructs, purified as complex (MBP removed by TEV); not shown: MBP, N-terminal, cleaved
T1 sequence (looked up): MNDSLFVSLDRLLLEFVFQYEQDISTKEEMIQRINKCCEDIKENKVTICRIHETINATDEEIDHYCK

[2] = biological target: the molecule itself; test: as above

- stoichiometry N [1]: 1
B1: full-length SYCE1 (human) (natural protein, UniProt Q8N0S2 1-351, looked up)
chain: MAGRSLTSKAEPTAGAVDRAEKAGGQDTSSQKIEDLMEMVQKLQKVGSLEPRVEVLINRINEVQQAKKKANKDLGEARTICEALQKELDSLHGEKVHLKEILSKKQETLRILRLHCQEKESEAHRKHTMLQECKERISALNLQIEEEKNKQRQLRLAFEEQLEDLMGQHKDLWDFHMPERLAKEICALDSSKEQLLKEEKLVKATLEDVKHQLCSLCGAEGPSTLDEGLFLRSQEAAATVQLFQEEHRKAEELLAAAAQRHQQLQQKCQQQQQKRQRLKEELEKHGMQVPAQAQSTQEEEAGPGDVASPKPLKGERPGAAHQAGPDVLIGQEDTLHPDLSPRGFQEIKELF
notes: SYCE1, human, full length; canonical 351-amino acid isoform; source: E. coli BL21(DE3), purified; co-expressed with SIX6OS1N for the complex

- stoichiometry N [1]: 1
B2: SYCE1POF (human SYCE1 amino acids 1 to 240, truncated product of the POF mutation c.613C>T, p.Gln241*) (domain or fragment, UniProt Q8N0S2 1-240, looked up)
chain: MAGRSLTSKAEPTAGAVDRAEKAGGQDTSSQKIEDLMEMVQKLQKVGSLEPRVEVLINRINEVQQAKKKANKDLGEARTICEALQKELDSLHGEKVHLKEILSKKQETLRILRLHCQEKESEAHRKHTMLQECKERISALNLQIEEEKNKQRQLRLAFEEQLEDLMGQHKDLWDFHMPERLAKEICALDSSKEQLLKEEKLVKATLEDVKHQLCSLCGAEGPSTLDEGLFLRSQEAAATV
notes: SYCE1, human, amino acids 1 to 240, relative to the canonical 351-amino acid isoform; product of the premature stop codon p.Gln241*; The purified material held about equal amounts of the full protein and a degradation product; source: also co-expressed with SIX6OS1N
- stoichiometry N [2]: 2

- stoichiometry N [1]: 1
B3: SYCE1core (human SYCE1 amino acids 25 to 179) (domain or fragment, UniProt Q8N0S2 25-179, looked up)
chain: GQDTSSQKIEDLMEMVQKLQKVGSLEPRVEVLINRINEVQQAKKKANKDLGEARTICEALQKELDSLHGEKVHLKEILSKKQETLRILRLHCQEKESEAHRKHTMLQECKERISALNLQIEEEKNKQRQLRLAFEEQLEDLMGQHKDLWDFHMPE
notes: Synaptonemal complex central element protein 1 (SYCE1), human, amino acids 25 to 179, numbers relative to the canonical 351-amino acid isoform; also called SYCE1 structural core; SYCE1 25–179; source: co-expressed with SIX6OS1N for the complex
- binding result [2]: binds
